Consider 5 molecules from patent publication WO2016059602A2 (dated 2016).

One assay has as its target human HER3 receptor (human, UniProt P21860 20-1342). The assay is described as follows: cell-based or functional assay.
Assay [1] addresses T1, full-length human HER3 extracellular domain (ECD) (human, UniProt P21860 20-643).
T1 construct: also called human HER3 ECD; HER3 ECD full length
Briefly: BIACORE, antibody captured on protein A, HER3 ECD as analyte, 25 C, 1:1 model. In general terms: In SPR one partner is held on a chip, and binding of the other changes the refractive index at the surface.

Assay [2] concerns the target T2, full-length rat HER3 extracellular domain (ECD) (rat, UniProt Q62799 20-643).
T2 construct: extracellular domain; also called Rat HER3 ECD
Briefly: BIACORE, antibody captured on protein A, rat HER3 ECD as analyte, 25 C, 1:1 model.

T2 sequence (Q62799 20-643): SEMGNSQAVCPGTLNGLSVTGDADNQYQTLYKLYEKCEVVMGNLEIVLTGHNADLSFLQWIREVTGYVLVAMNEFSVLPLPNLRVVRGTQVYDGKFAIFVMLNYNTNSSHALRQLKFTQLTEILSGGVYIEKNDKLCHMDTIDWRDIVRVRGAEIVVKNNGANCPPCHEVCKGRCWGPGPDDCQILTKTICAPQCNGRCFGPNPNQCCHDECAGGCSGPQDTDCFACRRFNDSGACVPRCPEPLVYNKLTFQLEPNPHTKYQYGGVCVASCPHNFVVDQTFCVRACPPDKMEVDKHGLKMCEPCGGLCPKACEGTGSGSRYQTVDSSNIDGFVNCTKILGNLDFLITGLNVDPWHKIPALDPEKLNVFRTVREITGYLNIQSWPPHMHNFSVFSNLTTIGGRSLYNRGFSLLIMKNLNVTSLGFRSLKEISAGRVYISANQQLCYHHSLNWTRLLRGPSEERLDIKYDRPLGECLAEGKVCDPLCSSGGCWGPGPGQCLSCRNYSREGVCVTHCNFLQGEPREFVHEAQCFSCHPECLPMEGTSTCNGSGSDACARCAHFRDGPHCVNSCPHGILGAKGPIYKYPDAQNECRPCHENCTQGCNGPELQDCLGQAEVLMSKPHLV
Chain of human HER3 receptor (P21860 20-1342 limits assumed): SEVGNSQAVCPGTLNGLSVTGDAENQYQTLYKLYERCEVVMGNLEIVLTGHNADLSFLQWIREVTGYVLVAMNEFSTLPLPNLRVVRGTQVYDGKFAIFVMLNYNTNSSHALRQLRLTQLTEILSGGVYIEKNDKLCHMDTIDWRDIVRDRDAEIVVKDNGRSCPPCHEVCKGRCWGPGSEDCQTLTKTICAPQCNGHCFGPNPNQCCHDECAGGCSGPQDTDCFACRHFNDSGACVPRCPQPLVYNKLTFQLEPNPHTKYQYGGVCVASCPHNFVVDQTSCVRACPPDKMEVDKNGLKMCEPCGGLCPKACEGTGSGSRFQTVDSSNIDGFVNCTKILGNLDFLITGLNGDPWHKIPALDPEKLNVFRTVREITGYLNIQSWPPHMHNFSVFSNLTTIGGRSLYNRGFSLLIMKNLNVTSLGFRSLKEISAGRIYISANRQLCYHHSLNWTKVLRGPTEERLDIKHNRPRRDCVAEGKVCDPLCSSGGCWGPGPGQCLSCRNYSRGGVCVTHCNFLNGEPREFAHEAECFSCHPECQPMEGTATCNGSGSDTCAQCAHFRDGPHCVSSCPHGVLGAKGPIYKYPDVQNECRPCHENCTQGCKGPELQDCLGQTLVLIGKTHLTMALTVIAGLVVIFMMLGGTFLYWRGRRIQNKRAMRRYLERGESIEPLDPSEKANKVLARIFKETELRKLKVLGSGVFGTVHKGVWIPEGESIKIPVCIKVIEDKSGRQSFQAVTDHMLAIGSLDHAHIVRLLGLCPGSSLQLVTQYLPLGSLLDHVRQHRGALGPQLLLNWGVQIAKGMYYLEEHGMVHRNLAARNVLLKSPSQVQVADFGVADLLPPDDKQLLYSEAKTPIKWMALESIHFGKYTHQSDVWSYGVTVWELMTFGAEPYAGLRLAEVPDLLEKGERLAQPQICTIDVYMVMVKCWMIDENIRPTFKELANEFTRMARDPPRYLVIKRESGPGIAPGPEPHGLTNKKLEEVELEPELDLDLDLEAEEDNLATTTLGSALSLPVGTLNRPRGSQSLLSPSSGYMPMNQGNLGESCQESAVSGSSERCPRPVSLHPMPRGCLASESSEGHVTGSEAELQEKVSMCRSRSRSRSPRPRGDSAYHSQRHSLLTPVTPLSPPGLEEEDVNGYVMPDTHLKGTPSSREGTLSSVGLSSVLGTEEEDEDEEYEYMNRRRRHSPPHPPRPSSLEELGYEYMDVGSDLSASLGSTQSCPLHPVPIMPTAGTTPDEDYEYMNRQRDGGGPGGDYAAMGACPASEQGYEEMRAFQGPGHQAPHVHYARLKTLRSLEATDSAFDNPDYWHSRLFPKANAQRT
T1 sequence (P21860 20-643): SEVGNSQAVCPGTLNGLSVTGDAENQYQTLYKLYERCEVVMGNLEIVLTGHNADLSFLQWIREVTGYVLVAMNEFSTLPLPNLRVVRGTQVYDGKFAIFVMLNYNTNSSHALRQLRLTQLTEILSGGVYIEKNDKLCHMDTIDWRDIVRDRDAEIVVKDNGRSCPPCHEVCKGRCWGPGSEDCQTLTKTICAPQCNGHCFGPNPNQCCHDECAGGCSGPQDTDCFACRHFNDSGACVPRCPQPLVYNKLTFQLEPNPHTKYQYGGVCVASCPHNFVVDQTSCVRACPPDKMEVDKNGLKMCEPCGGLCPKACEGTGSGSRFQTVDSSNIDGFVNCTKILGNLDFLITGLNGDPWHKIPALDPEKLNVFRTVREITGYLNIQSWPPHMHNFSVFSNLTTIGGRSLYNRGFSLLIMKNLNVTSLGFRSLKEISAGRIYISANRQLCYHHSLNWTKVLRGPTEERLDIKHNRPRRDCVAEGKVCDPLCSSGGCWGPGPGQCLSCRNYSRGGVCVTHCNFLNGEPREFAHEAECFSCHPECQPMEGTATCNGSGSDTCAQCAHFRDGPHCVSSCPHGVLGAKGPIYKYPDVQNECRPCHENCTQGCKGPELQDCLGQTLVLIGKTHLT

B1: murine 15D5 antibody (M5.15D5.2A1.1H10) (antibody, V domains shown)
VH: EFQLQQSGPELVKPGASVKISCKASGYSFTDYNMNWVKQNNGKSLEWIGGINPNYGTTVYNQKFKGKATLTVDQSSSTAYMQLVSLTSEDSAVYYCARMTTIVPFDYWGQGTTLTVSS
VL: DIQMTQTTFSLSASLGDRVTISCRASQDISNYLNWYQQKPDGTVKLLIYYTSTLHSGVPSRFSGSGSGTDYFLTIRNLEEEDIATYFCQQGYTLPWTFGGGTKLDIK
For the molecule B1, in the assay with human HER3 receptor, the “Phospho-HER3 ELISA IC50, heregulin induced HER3 phosphorylation, BT-474 cells” value was determined as 120 ng/mL; the “Phospho-HER3 ELISA IC50, heregulin induced HER3 phosphorylation, BxPC3 cells” value (shortened to “Phospho-HER3 ELISA IC50 … BxPC3 cells”) was found to be 54.1 ng/mL; the “Phospho-HER3 ELISA IC50, heregulin induced HER3 phosphorylation, CHL-1 cells” value (“Phospho-HER3 ELISA IC50 … CHL-1 cells” for short) was found to be 138 ng/mL; the “Phospho-HER3 ELISA IC50, heregulin induced HER3 phosphorylation, MCF7 cells” value was 59.3 ng/mL. For the same molecule, in the assay with human HER3 receptor, the “Phospho-HER3 ELISA IC50, heregulin induced HER3 phosphorylation, N87 cells” value (“Phospho-HER3 ELISA IC50 … N87 cells” below) came out at 53.3 ng/mL and the “Phospho-HER3 ELISA IC50, heregulin induced HER3 phosphorylation, SK-BR-3 cells” value (“Phospho-HER3 ELISA IC50 … SK-BR-3 cells” for short) worked out at 19.1 ng/mL.

B2: murine 1D9 antibody (M5.1D9.1F5) (antibody, V domains shown)
VH: QVQLQQPGAELVRPGTSVKLSCKASGYTFTSYWMHWVKQRPGQGLEWIGVIDPSDGYSHYNQKFKGKATLTVDTSSSTAYMQLSSLTSEDSAVYYCAGGLAGTLDYWGQGTTLTVSS
VL: DVLMTQTPLSLPVSLGDQASISCRSSQSIVHSSGNTYLQWFLQKPGQSPKLLISKVSNRFSGVPDRFSGSGSGTDFTLRISRVEAEDLGLYYCFQGSHVPWTFGGGTKLEIK
B2: in the assay with human HER3 receptor, the “IC50, ligand (EGF, betacellulin or heregulin) induced HER3 receptor phosphorylation, SK-BR-3 cells” value was around 3 ng/mL; the “Phospho-HER3 ELISA IC50, heregulin induced HER3 phosphorylation, BT-474 cells” value was found to be 22.3 ng/mL; the “Phospho-HER3 ELISA IC50 … BxPC3 cells” value is 6.8 ng/mL; the “Phospho-HER3 ELISA IC50 … CHL-1 cells” value is 40.6 ng/mL. In the assay with human HER3 receptor, the “Phospho-HER3 ELISA IC50, heregulin induced HER3 phosphorylation, MCF7 cells” value worked out at 10.4 ng/mL; the “Phospho-HER3 ELISA IC50 … N87 cells” value was determined as 20.4 ng/mL; the “Phospho-HER3 ELISA IC50 … SK-BR-3 cells” value worked out at 3.2 ng/mL.

B3: humanized 1D9 POTELLIGENT antibody (antibody, human IgG1, kappa, V domains shown)
VH: QVQLVQSGAEVKKPGASVKVSCKASGYTFTSYWMHWVRQAPGQGLEWMGVIDPSDGYSHYNQKFKGKVTLTVDTSISTAYMELSRLRSDDTAVYYCAGGLAGTLDYWGQGTTVTVSS
VL: DIQMTQSPSSLSASVGDRVTITCRSSQSIVHSSGNTYLQWFQQKPGKAPKLLIYKVSNRFSGVPSRFSGSGSGTDFTLTISSLQPEDFAVYYCFQGSHVPWTFGQGTKLEIKR
notes: also called humanized 1D9 H6L2 POTELLIGENT antibody; humanized POTELLIGENT antibody
In general, Kd refers to a measure of binding affinity in units of concentration. As usually defined, the koff is the rate constant with which the complex falls apart. As a reminder, the kon is the second-order rate constant of association. Read a low kon as slower complex formation. B3: in assay [1], binding was characterised by a dissociation constant (Kd) of 2.01 nM, the koff was determined as 0.00223 s⁻¹ and the kon turned out to be 1.11e+06 M⁻¹ s⁻¹. Also, in the assay with human HER3 receptor, the “Phospho-HER3 ELISA IC50 … BxPC3 cells” value turned out to be 5.6 ng/mL; the “Phospho-HER3 ELISA IC50 … CHL-1 cells” value is 28.2 ng/mL; the “Phospho-HER3 ELISA IC50 … N87 cells” value was found to be 17.5 ng/mL; the “Phospho-HER3 ELISA IC50 … SK-BR-3 cells” value amounted to 3.4 ng/mL. In assay [2], this molecule showed an equilibrium dissociation constant (Kd) of 3.37 nM, a dissociation rate constant (koff) of 0.0011 s⁻¹ and a kon of 326000 M⁻¹ s⁻¹.

B4: humanized 1D9 antibody (antibody, human IgG1, kappa, V domains shown)
VH: QVQLVQSGAEVKKPGASVKVSCKASGYTFTSYWMHWVRQAPGQGLEWMGVIDPSDGYSHYNQKFKGKVTLTVDTSISTAYMELSRLRSDDTAVYYCAGGLAGTLDYWGQGTTVTVSS
VL: DIQMTQSPSSLSASVGDRVTITCRSSQSIVHSSGNTYLQWFQQKPGKAPKLLIYKVSNRFSGVPSRFSGSGSGTDFTLTISSLQPEDFAVYYCFQGSHVPWTFGQGTKLEIKR
With B4, in the assay with human HER3 receptor, the “Phospho-HER3 ELISA IC50 … BxPC3 cells” value is 11.6 ng/mL; the “Phospho-HER3 ELISA IC50 … CHL-1 cells” value was 36.5 ng/mL; the “Phospho-HER3 ELISA IC50 … N87 cells” value is 21.8 ng/mL; the “Phospho-HER3 ELISA IC50 … SK-BR-3 cells” value stood at 3.6 ng/mL.

B5: humanized 1D9 Fc disabled antibody (antibody, V domains shown)
VH: QVQLVQSGAEVKKPGASVKVSCKASGYTFTSYWMHWVRQAPGQGLEWMGVIDPSDGYSHYNQKFKGKVTLTVDTSISTAYMELSRLRSDDTAVYYCAGGLAGTLDYWGQGTTVTVSS
VL: DIQMTQSPSSLSASVGDRVTITCRSSQSIVHSSGNTYLQWFQQKPGKAPKLLIYKVSNRFSGVPSRFSGSGSGTDFTLTISSLQPEDFAVYYCFQGSHVPWTFGQGTKLEIKR
notes: also called humanized 1D9 H6L2 Fc disabled antibody
For B5, in assay [1], the Kd was 4.49 nM, the koff turned out to be 0.00122 s⁻¹ and the kon came out at 271000 M⁻¹ s⁻¹. For the same molecule, in the assay with human HER3 receptor, the “Phospho-HER3 ELISA IC50 … BxPC3 cells” value worked out at 10.7 ng/mL; the “Phospho-HER3 ELISA IC50 … CHL-1 cells” value was found to be 39.9 ng/mL; the “Phospho-HER3 ELISA IC50 … N87 cells” value was 29.7 ng/mL; the “Phospho-HER3 ELISA IC50 … SK-BR-3 cells” value came to 4.4 ng/mL.
